Test results taken from patent US20220186206, “NOVEL Cas ENZYME AND SYSTEM, AND USE THEREOF” (SHANDONG SHUNFENG BIOTECHNOLOGY CO., LTD., published 2022).

B1: gRNA gTGW6-2 (UkCpf1 DR + spacer) ; TGW6-2 target (ssRNA ; dsDNA)
RNA: AUUUCUACUAUUGUAGAUUUUCACCGACAGCAGCAUGAACU
DNA 1: TTTCACCGACAGCAGCATGAACT
DNA 2: AGTTCATGCTGCTGTCGGTGAAA
B2: gRNA gTGW6-3 (UkCpf1 DR + spacer) ; TGW6-3 target (ssRNA ; dsDNA)
RNA: AUUUCUACUAUUGUAGAUUUGACCUGCCAGGCUAUCCUGAU
DNA 1: TTGACCTGCCAGGCTATCCTGAT
DNA 2: ATCAGGATAGCCTGGCAGGTCAA
B3: gRNA gTGW6-5 (UkCpf1 DR + spacer) ; TGW6-5 target (ssRNA ; dsDNA)
RNA: AUUUCUACUAUUGUAGAUCGUGUAGCUGGGGCUGUACGUGU
DNA 1: CGTGTAGCTGGGGCTGTACGTGT
DNA 2: ACACGTACAGCCCCAGCTACACG

Biological target: T1, UkCpf1 (in cells) (uncultivated microorganism (metagenome))
T1 chain: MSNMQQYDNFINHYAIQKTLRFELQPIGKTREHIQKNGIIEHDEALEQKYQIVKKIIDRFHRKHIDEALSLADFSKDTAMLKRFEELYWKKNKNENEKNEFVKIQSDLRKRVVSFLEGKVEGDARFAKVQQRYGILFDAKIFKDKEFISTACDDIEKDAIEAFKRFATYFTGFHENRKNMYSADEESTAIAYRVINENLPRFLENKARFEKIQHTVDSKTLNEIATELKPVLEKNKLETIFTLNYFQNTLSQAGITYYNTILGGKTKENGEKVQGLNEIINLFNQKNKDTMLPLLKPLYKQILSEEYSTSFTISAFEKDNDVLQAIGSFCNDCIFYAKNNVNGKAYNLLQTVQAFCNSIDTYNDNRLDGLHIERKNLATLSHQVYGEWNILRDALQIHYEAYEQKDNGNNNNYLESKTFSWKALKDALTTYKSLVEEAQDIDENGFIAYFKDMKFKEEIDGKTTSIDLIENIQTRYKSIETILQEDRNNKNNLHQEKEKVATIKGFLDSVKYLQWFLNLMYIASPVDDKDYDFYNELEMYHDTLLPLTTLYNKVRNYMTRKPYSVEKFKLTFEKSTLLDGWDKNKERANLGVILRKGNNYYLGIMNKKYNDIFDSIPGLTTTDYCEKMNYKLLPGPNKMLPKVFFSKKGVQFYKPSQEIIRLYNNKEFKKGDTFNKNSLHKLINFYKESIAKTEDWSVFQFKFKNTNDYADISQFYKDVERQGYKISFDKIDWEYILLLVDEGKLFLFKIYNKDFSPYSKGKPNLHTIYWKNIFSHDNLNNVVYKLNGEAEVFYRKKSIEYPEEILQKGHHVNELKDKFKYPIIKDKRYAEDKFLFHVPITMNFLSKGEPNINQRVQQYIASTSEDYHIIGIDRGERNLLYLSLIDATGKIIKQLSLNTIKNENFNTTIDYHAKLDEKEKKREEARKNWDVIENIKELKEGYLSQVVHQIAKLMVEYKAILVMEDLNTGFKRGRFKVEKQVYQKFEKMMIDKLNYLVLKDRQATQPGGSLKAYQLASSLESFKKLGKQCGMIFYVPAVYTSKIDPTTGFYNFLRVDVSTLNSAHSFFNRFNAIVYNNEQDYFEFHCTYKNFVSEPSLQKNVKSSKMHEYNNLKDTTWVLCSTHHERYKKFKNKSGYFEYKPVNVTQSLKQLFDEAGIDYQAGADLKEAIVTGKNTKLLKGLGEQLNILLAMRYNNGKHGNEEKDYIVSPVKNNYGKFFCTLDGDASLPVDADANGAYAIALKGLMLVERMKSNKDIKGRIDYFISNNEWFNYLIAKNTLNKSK
Experiment: cell_activity; rice protoplast; PAM 5'-YYV

Binder	activity
B1	0.39 % indel
B2	0.57 % indel
B3	0.73 % indel
